Measurements as given in the supplement of paper PMC9112550, “Optimization of the antimicrobial peptide Bac7 by deep mutational scanning” (BMC Biology, 2022).

test system: Escherichia coli TOP10; assay: shrunken log2 fold change of peptide-encoding DNA abundance (4.5 h post-induction vs induction); higher = less antimicrobial activity (less host growth inhibition); conditions: time post-induction: 4.5 h; library: site-saturation at positions 5, 18, 19, 20
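Also: peptides expressed intracellularly from a pBAD plasmid library in pooled LB shake-flask culture, induced with 0.3% L-arabinose, DNA abundance read by NGS, three biological replicates, DESeq2 with apeglm shrinkage.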

Point of comparison: RRIRCRPPRLPRPRPRPTMRPRP, “shrunken log2 fold change” value 0.529. Against it:
- RRIRWRPPRLPRPRPRPEVVPRP — lower, -0.0122
- RRIRERPPRLPRPRPRPHLYPRP — lower, -0.858
- RRIRLRPPRLPRPRPRPPRDPRP — within 0.2 log units, 0.531
- RRIRWRPPRLPRPRPRPQQDPRP — lower, 0.0825
- RRIRTRPPRLPRPRPRPAGLPRP — lower, 0.0286
- RRIRCRPPRLPRPRPRPWSDPRP — lower, -0.324
- RRIRHRPPRLPRPRPRPPDCPRP — lower, 0.182
- RRIRPRPPRLPRPRPRPAVMPRP — lower, 0.215
- RRIRTRPPRLPRPRPRPPWTPRP — lower, 0.167
- RRIRHRPPRLPRPRPRPSFMPRP — lower, -0.699
- RRIRKRPPRLPRPRPRPKAWPRP — lower, -0.0159
- RRIRIRPPRLPRPRPRPEGFPRP — lower, -0.321
- RRIRRRPPRLPRPRPRPECGPRP — higher, 0.938
- RRIRHRPPRLPRPRPRPGIAPRP — lower, -0.0902
- RRIRVRPPRLPRPRPRPQGFPRP — lower, -0.0921
- RRIRGRPPRLPRPRPRPECRPRP — higher, 1.32
- RRIRMRPPRLPRPRPRPLLVPRP — lower, 0.199
- RRIRPRPPRLPRPRPRPISGPRP — lower, -0.154
- RRIRFRPPRLPRPRPRPILSPRP — lower, -0.101
- RRIRCRPPRLPRPRPRPWHCPRP — lower, -0.0285
- RRIRNRPPRLPRPRPRPFSPPRP — lower, -0.148
- RRIRMRPPRLPRPRPRPPQNPRP — higher, 1.13
- RRIRYRPPRLPRPRPRPYLEPRP — lower, -1.7
- RRIRNRPPRLPRPRPRPHLSPRP — lower, -0.259
- RRIRVRPPRLPRPRPRPLTQPRP — lower, 0.149
- RRIRIRPPRLPRPRPRPAGVPRP — lower, 0.293
- RRIRSRPPRLPRPRPRPFVSPRP — lower, -0.481
- RRIRQRPPRLPRPRPRPLHPPRP — lower, -0.0917
- RRIRYRPPRLPRPRPRPQPYPRP — lower, -0.649
- RRIRWRPPRLPRPRPRPVYDPRP — lower, -0.15
- RRIRGRPPRLPRPRPRPHRGPRP — lower, 0.0302
- RRIRQRPPRLPRPRPRPVVTPRP — lower, 0.219
- RRIRQRPPRLPRPRPRPYVYPRP — lower, 0.00646
- RRIRHRPPRLPRPRPRPYPFPRP — lower, -0.772
- RRIRNRPPRLPRPRPRPWLMPRP — lower, -0.13
- RRIRDRPPRLPRPRPRPRIPPRP — lower, -0.108
- RRIRGRPPRLPRPRPRPTCVPRP — higher, 1.04
- RRIRNRPPRLPRPRPRPADNPRP — lower, 0.0856
- RRIRQRPPRLPRPRPRPRDQPRP — lower, -0.0332
- RRIRMRPPRLPRPRPRPLWSPRP — lower, -0.0373
- RRIRHRPPRLPRPRPRPLYSPRP — lower, -0.792
- RRIRHRPPRLPRPRPRPPHEPRP — lower, 0.181
- RRIRYRPPRLPRPRPRPNDAPRP — lower, 0.011
- RRIRMRPPRLPRPRPRPAPVPRP — higher, 0.764
- RRIRMRPPRLPRPRPRPLNMPRP — lower, -0.0641
- RRIRMRPPRLPRPRPRPNHDPRP — lower, -0.261
- RRIRFRPPRLPRPRPRPLSGPRP — lower, -0.233
- RRIRWRPPRLPRPRPRPQHRPRP — lower, 0.25
- RRIRPRPPRLPRPRPRPWNRPRP — lower, 0.122
- RRIRDRPPRLPRPRPRPPMPPRP — lower, 0.203
- RRIRNRPPRLPRPRPRPSRMPRP — lower, -0.454
- RRIRQRPPRLPRPRPRPYWLPRP — lower, -0.307
- RRIRQRPPRLPRPRPRPLQPPRP — lower, -0.0373
- RRIRLRPPRLPRPRPRPGVMPRP — lower, 0.0751
- RRIRERPPRLPRPRPRPANSPRP — lower, -0.0581
- RRIRPRPPRLPRPRPRPEENPRP — lower, 0.163
- RRIRWRPPRLPRPRPRPVHEPRP — lower, 0.21
- RRIRVRPPRLPRPRPRPPMWPRP — lower, 0.303
- RRIRCRPPRLPRPRPRPRLSPRP — lower, 0.0865
- RRIRWRPPRLPRPRPRPAGWPRP — higher, 0.922
- RRIRGRPPRLPRPRPRPLIYPRP — lower, 0.105
- RRIRYRPPRLPRPRPRPPDAPRP — lower, 0.0465
- RRIRNRPPRLPRPRPRPHYPPRP — lower, -0.465
- RRIRWRPPRLPRPRPRPDTAPRP — lower, -0.192
- RRIRTRPPRLPRPRPRPKPNPRP — lower, 0.186
- RRIRYRPPRLPRPRPRPTLRPRP — lower, -0.484
- RRIRLRPPRLPRPRPRPITDPRP — lower, -0.465
- RRIRCRPPRLPRPRPRPTPLPRP — within 0.2 log units, 0.522
- RRIRWRPPRLPRPRPRPDHSPRP — lower, -0.198
- RRIRHRPPRLPRPRPRPGRNPRP — lower, -0.31
- RRIRIRPPRLPRPRPRPPFPPRP — lower, 0.141
- RRIRERPPRLPRPRPRPRTVPRP — lower, 0.0995
- RRIRNRPPRLPRPRPRPWPHPRP — lower, -0.0312
- RRIRGRPPRLPRPRPRPHHPPRP — higher, 1.21
- RRIRKRPPRLPRPRPRPVPAPRP — within 0.2 log units, 0.648
- RRIRLRPPRLPRPRPRPGCDPRP — lower, 0.261
- RRIRWRPPRLPRPRPRPQMLPRP — lower, 0.313
- RRIRYRPPRLPRPRPRPNQTPRP — lower, -0.0672
- RRIRMRPPRLPRPRPRPSAKPRP — lower, 0.0449
- RRIRMRPPRLPRPRPRPFYKPRP — lower, -0.266
- RRIRLRPPRLPRPRPRPEWKPRP — lower, -0.16
- RRIRARPPRLPRPRPRPVGRPRP — within 0.2 log units, 0.691
- RRIRSRPPRLPRPRPRPQFVPRP — lower, -0.184
- RRIRWRPPRLPRPRPRPAMKPRP — lower, -0.0119
- RRIRDRPPRLPRPRPRPERPPRP — lower, 0.0268
- RRIRTRPPRLPRPRPRPAYSPRP — lower, 0.0215
- RRIRGRPPRLPRPRPRPPSMPRP — within 0.2 log units, 0.593
- RRIRGRPPRLPRPRPRPRTEPRP — higher, 0.755
- RRIRTRPPRLPRPRPRPDWPPRP — lower, 0.135
- RRIRPRPPRLPRPRPRPGTCPRP — lower, 0.182
- RRIRLRPPRLPRPRPRPAETPRP — lower, 0.0382
- RRIRDRPPRLPRPRPRPLYGPRP — lower, -0.105
- RRIRPRPPRLPRPRPRPKLKPRP — lower, 0.105
- RRIRHRPPRLPRPRPRPSCWPRP — lower, -0.0721
- RRIRNRPPRLPRPRPRPSGAPRP — lower, -0.0216
- RRIRKRPPRLPRPRPRPHIVPRP — lower, -0.0154
- RRIRFRPPRLPRPRPRPPTKPRP — within 0.2 log units, 0.709
- RRIRCRPPRLPRPRPRPYWCPRP — lower, -0.201
- RRIRLRPPRLPRPRPRPLGDPRP — lower, 0.015
- RRIRFRPPRLPRPRPRPAKEPRP — lower, 0.0148
- RRIRCRPPRLPRPRPRPGPWPRP — within 0.2 log units, 0.422
- RRIRIRPPRLPRPRPRPSEAPRP — lower, -0.0351
- RRIRNRPPRLPRPRPRPHANPRP — lower, 0.0684
- RRIRPRPPRLPRPRPRPRRKPRP — lower, 0.166
- RRIRCRPPRLPRPRPRPFSMPRP — lower, -0.107
- RRIRSRPPRLPRPRPRPYFFPRP — lower, -0.682
- RRIRYRPPRLPRPRPRPHEYPRP — lower, -0.354
- RRIRWRPPRLPRPRPRPKCCPRP — lower, 0.0888
